Laboratory results reported in publication PMC6286387, “Physical and thermodynamic characterization of the rice gibberellin receptor/gibberellin/DELLA protein complex” (Scientific Reports, 2018).

What was measured:
OsGID1 = target: T1, OsGID1 (Oryza sativa, UniProt Q6L545); assay: (method not stated for the binary complex); type: binding; conditions: read-out: Kb (converted)
T1 construct: gene GID1; recombinant, purified
T1 sequence (Q6L545 1-354): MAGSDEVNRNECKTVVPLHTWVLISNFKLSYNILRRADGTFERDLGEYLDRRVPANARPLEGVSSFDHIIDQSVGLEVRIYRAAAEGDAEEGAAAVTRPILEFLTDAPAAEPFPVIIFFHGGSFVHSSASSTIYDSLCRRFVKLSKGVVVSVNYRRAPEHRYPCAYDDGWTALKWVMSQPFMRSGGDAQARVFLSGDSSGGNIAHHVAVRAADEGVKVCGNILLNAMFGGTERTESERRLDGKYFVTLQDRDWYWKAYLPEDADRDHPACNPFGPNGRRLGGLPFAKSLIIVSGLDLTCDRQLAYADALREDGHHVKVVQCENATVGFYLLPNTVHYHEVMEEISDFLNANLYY

[1] = target: the molecule itself; assay: SEC; each protein chromatographed alone on Superdex 200 10/300 GL, 20 mM sodium phosphate (pH 7.5), 150 mM NaCl, 2 mM β-ME, 0.1 mM GA3; size against molecular weight standards
[2] = target: T2, Trx-OsGID1, used as the Trx-OsGID1/GA3 complex (rice (Oryza sativa), UniProt Q6L545 1-354); assay: SEC; purified Trx-OsGID1 and a Trx-SLR1 truncation mutant incubated together at 4 °C for 30 min with 10^-4 M GA3; Superdex 200 10/300 GL in 20 mM sodium phosphate (pH 7.5), 150 mM NaCl, 2 mM β-ME, 0.1 mM GA3; fractions on SDS-PAGE; conditions: both partners purified
T2 construct: Gibberellin receptor GID1 of rice (Oryza sativa); GA3 (0.1 mM) was present in the gel filtration; also called Trx-GID1/GA3; source: recombinant, purified
T2 sequence (looked up): T1 sequence (Q6L545 1-354)

[3] = target: T3, OsGID1 (rice gibberellin receptor GID1), Trx-free, used as the OsGID1/GA3 complex (rice (Oryza sativa), UniProt Q6L545 1-354); assay: ITC; 10 μl aliquants of 400 μM OsGID1/GA3 into 1.4482 ml of 50 μM SLR1 variant, 30 °C, 20 mM sodium phosphate (pH 7.5), 150 mM NaCl, 2.0 mM β-ME, 0.1 mM GA3; conditions: both partners purified
T3 construct: Gibberellin receptor GID1 of rice (Oryza sativa); theoretical MW of the dimer printed as 79.2 kDa; The printed mass (39.6 kDa a monomer) fits the whole protein; source: recombinant, purified
T3 sequence (looked up): T1 sequence (Q6L545 1-354)

[4] = target: T3, OsGID1 (rice gibberellin receptor …); assay: as above; conditions: both partners purified; remark: listed apart in the source
[5] = target: the molecule itself; assay: ITC; dilution series: 10 μl aliquants of 0.4 mM SLR1(M28-A112) into 1.4482 ml of buffer without OsGID1/GA3, 30 °C; dimer to monomers
[6] = target: T3, OsGID1 (rice gibberellin receptor …); assay: ITC; twenty 10 μl injections of 400 μM SLR1(M28-A112) into 50 μM OsGID1/GA3, 30 °C, 20 mM sodium phosphate (pH 7.5), 150 mM NaCl, 2.0 mM β-ME, 0.1 mM GA3; conditions: both partners purified

Question: `C=C1C[C@]23C[C@H]1CC[C@H]2[C@@]12CC[C@H](O)[C@@](C)(C(=O)O1)[C@H]2[C@@H]3C(=O)O` [GA4] was tested. Which Kd (OsGID1) did it give?
Answer: The Kd was 0.192 µM.

Question: How did the Kd (OsGID1) turn out when `C=C1C[C@]23C[C@@]1(O)CC[C@H]2[C@@]12C=C[C@H](O)[C@@](C)(C(=O)O1)[C@H]2[C@@H]3C(=O)O` [GA3] was run?
Answer: Its Kd is 3.57 µM.

Question: `C=C1C[C@]23C[C@H]1CC[C@H]2[C@@]12C=C[C@H](O)[C@@](C)(C(=O)O1)[C@H]2[C@@H]3C(=O)O` [GA7] was tested. Which Kd (OsGID1) did it give?
Answer: The Kd was 0.238 µM.

Question: `C=C1C[C@]23C[C@@]1(O)CC[C@H]2[C@@]12CC[C@H](O)[C@@](C)(C(=O)O1)[C@H]2[C@@H]3C(=O)O` [GA1] was tested. Which Kd (OsGID1) did it give?
Answer: Its Kd is 1.92 µM.

B1: Trx-SLR1(M1-L110) (domain or fragment, rice (Oryza sativa), UniProt Q7G7J6 1-110, looked up)
chain: MKREYQEAGGSSGGGSSADMGSCKDKVMAGAAGEEEDVDELLAALGYKVRSSDMADVAQKLEQLEMAMGMGGVSAPGAADDGFVSHLATDTVHYNPSDLSSWVESMLSEL
notes: DELLA protein SLR1 of rice (Oryza sativa), residues M1-L110; Thioredoxin-hexahistidine fusion from the vector pDEST-trx; source: E. coli, purified (HiTrap Chelating, Superdex 200); not shown: Trx, N-terminal, kept; His6, N-terminal, kept
Question: Does B1 bind [1]?
Answer: Result: binds

Question: Does B1 bind [2]?
Answer: Result: binds

B2: SLR1(M28-A112) ΔSPACE(G69-F83) (domain or fragment, rice (Oryza sativa), UniProt Q7G7J6 28-112, looked up)
chain: MAGAAGEEEDVDELLAALGYKVRSSDMADVAQKLEQLEMAMVSHLATDTVHYNPSDLSSWVESMLSELNA
notes: DELLA protein SLR1 of rice (Oryza sativa), residues M28-A112 with G69-F83 deleted; Named without Trx in the ITC experiments; removal of the tag is told in general in the methods; also called SLR(M28-A112)ΔSPACE; source: E. coli, purified (HiTrap Chelating, Superdex 200; thrombin, HiTrap Chelating, Superdex 75); not shown: Trx, N-terminal, cleaved; His6, N-terminal, cleaved
Question: Which Ka [3] does the source give for B2 here?
Answer: Its Ka is 390000 M⁻¹.

B3: SLR1(M1-H327) (domain or fragment, rice (Oryza sativa), UniProt Q7G7J6 1-327, looked up)
chain: MKREYQEAGGSSGGGSSADMGSCKDKVMAGAAGEEEDVDELLAALGYKVRSSDMADVAQKLEQLEMAMGMGGVSAPGAADDGFVSHLATDTVHYNPSDLSSWVESMLSELNAPLPPIPPAPPAARHASTSSTVTGGGGSGFFELPAAADSSSSTYALRPISLPVVATADPSAADSARDTKRMRTGGGSTSSSSSSSSSLGGGASRGSVVEAAPPATQGAAAANAPAVPVVVVDTQEAGIRLVHALLACAEAVQQENFAAAEALVKQIPTLAASQGGAMRKVAAYFGEALARRVYRFRPADSTLLDAAFADLLHAHFYESCPYLKFAH
notes: DELLA protein SLR1 of rice (Oryza sativa), residues M1-H327; Named without Trx in the ITC experiments; removal of the tag is told in general in the methods; also called SLR(M1-H327); source: E. coli, purified (HiTrap Chelating, Superdex 200; thrombin, HiTrap Chelating, Superdex 75); not shown: Trx, N-terminal, cleaved; His6, N-terminal, cleaved
Question: How did the Ka [3] turn out when B3 was run?
Answer: The Ka was 2e+06 M⁻¹.

B4: Trx-SLR1(M28-A112) (domain or fragment, rice (Oryza sativa), UniProt Q7G7J6 28-112, looked up)
chain: MAGAAGEEEDVDELLAALGYKVRSSDMADVAQKLEQLEMAMGMGGVSAPGAADDGFVSHLATDTVHYNPSDLSSWVESMLSELNA
notes: DELLA protein SLR1 of rice (Oryza sativa), residues M28-A112; theoretical monomeric MW of the fusion 29.3 kDa; Thioredoxin-hexahistidine fusion from the vector pDEST-trx; source: E. coli, purified (HiTrap Chelating, Superdex 200); not shown: Trx, N-terminal, kept; His6, N-terminal, kept
Question: Which results are given for B4?
Answer: stoichiometry N [1]: 2; stoichiometry N [2]: 1

B5: SLR1(M28-A112), Trx-free (domain or fragment, rice (Oryza sativa), UniProt Q7G7J6 28-112, looked up)
chain: B4 chain
notes: DELLA protein SLR1 of rice (Oryza sativa), residues M28-A112; 13C/15N-labelled for the NMR spectra; also called SLR(M28-A112); source: E. coli, purified (HiTrap Chelating, Superdex 200; thrombin, HiTrap Chelating, Superdex 75); not shown: Trx, N-terminal, cleaved; His6, N-terminal, cleaved
Question: Which results are given for B5?
Answer: Ka [4]: 1.1e+07 M⁻¹; Kd [5]: 1600 µM; dH [5]: -66 kcal/mol; Ka [3]: 2.9e+07 M⁻¹; Ka [6]: 1.2e+07 M⁻¹; dH [6]: -8.75 kcal/mol; stoichiometry N [6]: 0.88

B6: SLR1(M1-A172) (domain or fragment, rice (Oryza sativa), UniProt Q7G7J6 1-172, looked up)
chain: MKREYQEAGGSSGGGSSADMGSCKDKVMAGAAGEEEDVDELLAALGYKVRSSDMADVAQKLEQLEMAMGMGGVSAPGAADDGFVSHLATDTVHYNPSDLSSWVESMLSELNAPLPPIPPAPPAARHASTSSTVTGGGGSGFFELPAAADSSSSTYALRPISLPVVATADPSA
notes: DELLA protein SLR1 of rice (Oryza sativa), residues M1-A172; Named without Trx in the ITC experiments; removal of the tag is told in general in the methods; also called SLR(M1-A172); source: E. coli, purified (HiTrap Chelating, Superdex 200; thrombin, HiTrap Chelating, Superdex 75); not shown: Trx, N-terminal, cleaved; His6, N-terminal, cleaved
Question: How did the Ka [3] turn out when B6 was run?
Answer: The Ka was 2.8e+07 M⁻¹.

B7: Trx-SLR1(M1-E104) (domain or fragment, rice (Oryza sativa), UniProt Q7G7J6 1-104, looked up)
chain: MKREYQEAGGSSGGGSSADMGSCKDKVMAGAAGEEEDVDELLAALGYKVRSSDMADVAQKLEQLEMAMGMGGVSAPGAADDGFVSHLATDTVHYNPSDLSSWVE
notes: DELLA protein SLR1 of rice (Oryza sativa), residues M1-E104; Thioredoxin-hexahistidine fusion from the vector pDEST-trx; source: E. coli, purified (HiTrap Chelating, Superdex 200); not shown: Trx, N-terminal, kept; His6, N-terminal, kept
Question: How did the “stoichiometry N” value [1] turn out when B7 was run?
Answer: Its value is 2.
